Measured values reported in article PMC8287531 (The Journal of Cell Biology, 2021).

How the values were obtained:
[1] = target: T1, talin R7R8 rod domains (UniProt Q9Y490 1359-1659); assay: fluorescence polarisation; serial dilution of protein against 100 nM fluorescein- or BODIPY-TMR-coupled peptide; 20°C; one-site total binding equation; triplicate; conditions: both partners purified
T1 construct: Talin R7R8 rod domains; the construct used in the assays is not described in the methods

[2] = target: T2, TLNRD1 four-helix domain (TLNRD1-4H, residues 143-273) (human, UniProt Q9H1K6 143-273); assay: as above; conditions: both partners purified
T2 construct: Human TLNRD1 four-helix domain, residues 143-273, sub-cloned into pET151; Density was traced for residues 148-270 in PDB 6XZ3; also called 4H domain
T2 sequence (Q9H1K6 143-273): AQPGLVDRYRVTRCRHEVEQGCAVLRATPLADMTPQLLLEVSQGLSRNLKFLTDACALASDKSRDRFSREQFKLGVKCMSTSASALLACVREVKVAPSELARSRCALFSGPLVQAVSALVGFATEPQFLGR

T1 sequence (Q9Y490 1359-1659): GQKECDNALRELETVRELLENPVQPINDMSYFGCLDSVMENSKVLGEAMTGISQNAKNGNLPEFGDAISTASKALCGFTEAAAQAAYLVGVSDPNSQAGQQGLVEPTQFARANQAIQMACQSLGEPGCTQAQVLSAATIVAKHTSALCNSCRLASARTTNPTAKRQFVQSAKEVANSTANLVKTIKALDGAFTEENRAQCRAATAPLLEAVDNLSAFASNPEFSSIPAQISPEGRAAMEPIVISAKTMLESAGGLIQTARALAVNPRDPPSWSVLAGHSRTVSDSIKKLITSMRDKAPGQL

Kd [1]	Kd [2]	Binder
0.35 µM		PYFVETPYGFQLDLDFVKYVDDIQKGNTIKKC (BODIPY-labeled, KANK1 KN domain LD motif, residues 30-60; added C-terminal cysteine residue; also called KANK1 KN domain LD motif (residues 30-60); source: synthetic peptide (GLBiochem, Shanghai)) [KANK1(30-60) peptide, KN domain LD motif, BODIPY-labeled]
	9 µM	EDQDLDKMFGAWLGELDRLTQSLDSDKC (coupled with either a fluorescein or BODIPY-TMR dye (which one is not stated for this peptide), Lamellipodin residues 20-46; added C-terminal cysteine residue; source: synthetic peptide (GLBiochem, Shanghai)) [lamellipodin(20-46) peptide]
